Measurements taken from the supplement of paper PMC7125110.
± gives the standard error. This sample holds only a part of the variants without activity.

B1: glmS ribozyme (parent)
chain: AUAAAAGCGCCAGAACUACAGAAAUGUAGUUGACGAGGAGGAGGUUUAUCGAAUUUUCGGCGGAUGCCUCCAAA

Assays:
Conditions in all cases: with glucosamine-6-phosphate
glucosamine-6-phosphate [1] = variants of: B1; experiment: self-cleavage kobs at 40 uM GlcN6P; higher = faster cleavage; RNA array
In short: (§1)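 A hybridised Cy3 probe tracked barcoded ribozyme variants, transcribed in situ by E. coli RNA polymerase on sequenced MiSeq chips, at 37 °C. The variants received 40 μM to 10 mM glucosamine-6-phosphate in HEPES/KCl/Mg(OAc)2 buffer. kobs came from decay fits and kcat and KM from weighted Michaelis–Menten fits.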

glucosamine-6-phosphate [2] = variants of: B1; experiment: self-cleavage kobs at 160 uM GlcN6P; higher = faster cleavage; RNA array
In short: as §1

glucosamine-6-phosphate [3] = variants of: B1; experiment: self-cleavage kobs at 640 uM GlcN6P; higher = faster cleavage; RNA array
In short: as §1

glucosamine-6-phosphate [4] = variants of: B1; experiment: self-cleavage kobs at 10000 uM GlcN6P; higher = faster cleavage; RNA array
In short: as §1

glucosamine-6-phosphate [5] = variants of: B1; experiment: self-cleavage kobs at 2500 uM GlcN6P; higher = faster cleavage; RNA array
In short: as §1

U30G G62C
self-cleavage kobs at 40 uM GlcN6P (glucosamine-6-phosphate [1]): < 1e-05 s⁻¹ | self-cleavage kobs at 160 uM GlcN6P (glucosamine-6-phosphate [2]): < 1e-05 s⁻¹ | self-cleavage kobs at 640 uM GlcN6P (glucosamine-6-phosphate [3]): < 1e-05 s⁻¹ | self-cleavage kobs at 10000 uM GlcN6P (glucosamine-6-phosphate [4]): < 1e-05 s⁻¹

C34U U69G
self-cleavage kobs at 40 uM GlcN6P (glucosamine-6-phosphate [1]): 0.000246 ± 5.1e-05 s⁻¹ | self-cleavage kobs at 160 uM GlcN6P (glucosamine-6-phosphate [2]): 5.32e-05 ± 2.5e-05 s⁻¹ | self-cleavage kobs at 640 uM GlcN6P (glucosamine-6-phosphate [3]): 0.000467 ± 0.00011 s⁻¹ | self-cleavage kobs at 2500 uM GlcN6P (glucosamine-6-phosphate [5]): 0.00161 ± 0.00069 s⁻¹ | self-cleavage kobs at 10000 uM GlcN6P (glucosamine-6-phosphate [4]): 0.000285 ± 4.5e-05 s⁻¹

G9C U57A
self-cleavage kobs at 40 uM GlcN6P (glucosamine-6-phosphate [1]): < 1e-05 s⁻¹ | self-cleavage kobs at 640 uM GlcN6P (glucosamine-6-phosphate [3]): < 1e-05 s⁻¹ | self-cleavage kobs at 2500 uM GlcN6P (glucosamine-6-phosphate [5]): < 1e-05 s⁻¹

C10U C11A A39C A42U U47C G66C
self-cleavage kobs at 40 uM GlcN6P (glucosamine-6-phosphate [1]): < 1e-05 s⁻¹

A33U G35U
self-cleavage kobs at 40 uM GlcN6P (glucosamine-6-phosphate [1]): < 1e-05 s⁻¹ | self-cleavage kobs at 640 uM GlcN6P (glucosamine-6-phosphate [3]): < 1e-05 s⁻¹ | self-cleavage kobs at 2500 uM GlcN6P (glucosamine-6-phosphate [5]): < 1e-05 s⁻¹ | self-cleavage kobs at 10000 uM GlcN6P (glucosamine-6-phosphate [4]): < 1e-05 s⁻¹

G29C G41U U46C G62U
self-cleavage kobs at 40 uM GlcN6P (glucosamine-6-phosphate [1]): < 1e-05 s⁻¹ | self-cleavage kobs at 10000 uM GlcN6P (glucosamine-6-phosphate [4]): < 1e-05 s⁻¹

G38A G41C G43U
self-cleavage kobs at 40 uM GlcN6P (glucosamine-6-phosphate [1]): < 1e-05 s⁻¹

U55G C71G
self-cleavage kobs at 40 uM GlcN6P (glucosamine-6-phosphate [1]): 7.4e-05 ± 1.7e-05 s⁻¹ | self-cleavage kobs at 2500 uM GlcN6P (glucosamine-6-phosphate [5]): 0.000704 ± 0.00019 s⁻¹ | self-cleavage kobs at 10000 uM GlcN6P (glucosamine-6-phosphate [4]): 0.00121 ± 0.00035 s⁻¹

A12U G35U U49C
self-cleavage kobs at 40 uM GlcN6P (glucosamine-6-phosphate [1]): < 1e-05 s⁻¹ | self-cleavage kobs at 2500 uM GlcN6P (glucosamine-6-phosphate [5]): < 1e-05 s⁻¹

A14C G35U C70U
self-cleavage kobs at 40 uM GlcN6P (glucosamine-6-phosphate [1]): < 1e-05 s⁻¹ | self-cleavage kobs at 10000 uM GlcN6P (glucosamine-6-phosphate [4]): < 1e-05 s⁻¹

U55A U56G
self-cleavage kobs at 40 uM GlcN6P (glucosamine-6-phosphate [1]): 0.000292 ± 4.8e-05 s⁻¹ | self-cleavage kobs at 160 uM GlcN6P (glucosamine-6-phosphate [2]): 0.000454 ± 8.8e-05 s⁻¹ | self-cleavage kobs at 640 uM GlcN6P (glucosamine-6-phosphate [3]): 0.00368 ± 0.00046 s⁻¹ | self-cleavage kobs at 2500 uM GlcN6P (glucosamine-6-phosphate [5]): 0.00771 ± 0.0013 s⁻¹ | self-cleavage kobs at 10000 uM GlcN6P (glucosamine-6-phosphate [4]): 0.0097 ± 0.0019 s⁻¹

C8A U31A C50G A53U C70A
self-cleavage kobs at 40 uM GlcN6P (glucosamine-6-phosphate [1]): 0.000306 ± 7.3e-05 s⁻¹ | self-cleavage kobs at 10000 uM GlcN6P (glucosamine-6-phosphate [4]): 0.000515 ± 0.00016 s⁻¹

U45C C58A
self-cleavage kobs at 40 uM GlcN6P (glucosamine-6-phosphate [1]): < 1e-05 s⁻¹ | self-cleavage kobs at 160 uM GlcN6P (glucosamine-6-phosphate [2]): < 1e-05 s⁻¹

C16G G62C A64U
self-cleavage kobs at 160 uM GlcN6P (glucosamine-6-phosphate [2]): < 1e-05 s⁻¹

G32C C34U
self-cleavage kobs at 40 uM GlcN6P (glucosamine-6-phosphate [1]): < 1e-05 s⁻¹ | self-cleavage kobs at 160 uM GlcN6P (glucosamine-6-phosphate [2]): < 1e-05 s⁻¹ | self-cleavage kobs at 640 uM GlcN6P (glucosamine-6-phosphate [3]): < 1e-05 s⁻¹ | self-cleavage kobs at 2500 uM GlcN6P (glucosamine-6-phosphate [5]): < 1e-05 s⁻¹ | self-cleavage kobs at 10000 uM GlcN6P (glucosamine-6-phosphate [4]): < 1e-05 s⁻¹

A6U G35U
self-cleavage kobs at 40 uM GlcN6P (glucosamine-6-phosphate [1]): < 1e-05 s⁻¹ | self-cleavage kobs at 160 uM GlcN6P (glucosamine-6-phosphate [2]): < 1e-05 s⁻¹ | self-cleavage kobs at 640 uM GlcN6P (glucosamine-6-phosphate [3]): < 1e-05 s⁻¹ | self-cleavage kobs at 2500 uM GlcN6P (glucosamine-6-phosphate [5]): < 1e-05 s⁻¹ | self-cleavage kobs at 10000 uM GlcN6P (glucosamine-6-phosphate [4]): < 1e-05 s⁻¹

A14G U54A
self-cleavage kobs at 40 uM GlcN6P (glucosamine-6-phosphate [1]): 0.00167 ± 0.00022 s⁻¹ | self-cleavage kobs at 160 uM GlcN6P (glucosamine-6-phosphate [2]): 0.00342 ± 0.0007 s⁻¹ | self-cleavage kobs at 640 uM GlcN6P (glucosamine-6-phosphate [3]): 0.027 ± 0.0081 s⁻¹ | self-cleavage kobs at 2500 uM GlcN6P (glucosamine-6-phosphate [5]): 0.0173 ± 0.0047 s⁻¹ | self-cleavage kobs at 10000 uM GlcN6P (glucosamine-6-phosphate [4]): 0.103 ± 0.048 s⁻¹

G29C A42C
self-cleavage kobs at 40 uM GlcN6P (glucosamine-6-phosphate [1]): < 1e-05 s⁻¹ | self-cleavage kobs at 640 uM GlcN6P (glucosamine-6-phosphate [3]): < 1e-05 s⁻¹ | self-cleavage kobs at 2500 uM GlcN6P (glucosamine-6-phosphate [5]): < 1e-05 s⁻¹ | self-cleavage kobs at 10000 uM GlcN6P (glucosamine-6-phosphate [4]): < 1e-05 s⁻¹

C10G A14C C70U
self-cleavage kobs at 40 uM GlcN6P (glucosamine-6-phosphate [1]): < 1e-05 s⁻¹

G13A A36G C50G G66C
self-cleavage kobs at 40 uM GlcN6P (glucosamine-6-phosphate [1]): 0.000105 ± 3.1e-05 s⁻¹

C34A U45A
self-cleavage kobs at 40 uM GlcN6P (glucosamine-6-phosphate [1]): < 1e-05 s⁻¹ | self-cleavage kobs at 160 uM GlcN6P (glucosamine-6-phosphate [2]): < 1e-05 s⁻¹ | self-cleavage kobs at 640 uM GlcN6P (glucosamine-6-phosphate [3]): < 1e-05 s⁻¹ | self-cleavage kobs at 2500 uM GlcN6P (glucosamine-6-phosphate [5]): < 1e-05 s⁻¹

A12G C50U G59U G60A
self-cleavage kobs at 40 uM GlcN6P (glucosamine-6-phosphate [1]): < 1e-05 s⁻¹ | self-cleavage kobs at 10000 uM GlcN6P (glucosamine-6-phosphate [4]): < 1e-05 s⁻¹

G7U G35U A39U
self-cleavage kobs at 40 uM GlcN6P (glucosamine-6-phosphate [1]): < 1e-05 s⁻¹
